Key:
[1] = target: budding yeast Proliferating Cell Nuclear Antigen (PCNA) (budding yeast); experiment: AUC; sedimentation velocity, 100 µM protein (monomer concentration); trimer to monomers
[2] = target: budding yeast Proliferating Cell Nuclear Antigen (PCNA) (budding yeast); experiment: SEC-MALS; gel filtration coupled to multi-angle light scattering; 3 or 0.3 mg/ml (~100 or 10 µM) in 20 mM sodium phosphate, 150 mM NaCl, 0.03% (w/v) sodium azide, pH 7.0
[3] = target: human Proliferating Cell Nuclear Antigen (PCNA) (human); experiment: AUC; sedimentation velocity, 100 µM protein (monomer concentration); trimer to monomers
[4] = target: human Proliferating Cell Nuclear Antigen (PCNA) (human); experiment: SEC-MALS; gel filtration coupled to multi-angle light scattering; 3 or 0.3 mg/ml (~100 or 10 µM) in 20 mM sodium phosphate, 150 mM NaCl, 0.03% (w/v) sodium azide, pH 7.0

| population of monomers in equilibrium with the trimer [1] [%] | stoichiometry N [1] | population of species with the molecular weight of a dimer of trimers [2] [%] | stoichiometry N [2] | population of monomers in equilibrium with the trimer [3] [%] | stoichiometry N [3] | population of species with the molecular weight of a dimer of trimers [4] [%] | stoichiometry N [4] | Substance |
| --- | --- | --- | --- | --- | --- | --- | --- | --- |
| < 3 | 3 | < 4 | 3 | – | – | – | – | budding yeast Proliferating Cell Nuclear Antigen (PCNA) (natural protein) |
| – | – | – | – | < 3 | 3 | < 4 | 3 | human Proliferating Cell Nuclear Antigen (PCNA) (natural protein) |

Reference: paper PMC3041752
